US20190300623A1 (POLYTHERICS, published 2019)

What follows are binders tested against PSMA on PSMA-positive LNCaP (clone FGC) and C4-2 cells (assay: cell-based or functional assay).

| Binder | IC50 (nM), anti-proliferative effect on C4-2 cells (CellTiter Glo viability) | IC50 (nM), anti-proliferative effect on LNCaP cells (CellTiter Glo viability) |
| --- | --- | --- |
| AB-02-mc-val-cit-PAB-MMAE (antibody, human IgG1, V domains shown, mc-val-cit-PAB-MMAE (maleimide reagent) conjugated after TCEP reduction; average DAR 3.5 (±0.2); attachment residues not given) VH: EVQLVQSGAEVKKPGASVKVSCKASGYTFTEYTIHWVRQAPGKGLEWIGNINPNNGGTTYNQKFEDRVTITVDKSTSTAYMELSSLRSEDTAVYYCAAYWLFDYWGQGTTVTVSS VL: DIQMTQSPSTLSASVGDRVTITCKASQDVGTAVDWYQQKPGQAPKLLIYWASTRHTGVPDRFSGSGSGTDFTLTISRLQPEDFAVYYCQQYNSYPLTFGQGTKVDIK | 0.18 nM | 0.61 nM |
| AB-08-mc-val-cit-PAB-MMAE (antibody, V domains shown, mc-val-cit-PAB-MMAE (maleimide reagent) conjugated after TCEP reduction; average DAR 3.5 (±0.2); attachment residues not given) VH: QVQLVESGGGVVQPGRSLRLSCAASGFAFSRYGMHWVRQAPGKGLEWVAVIWYDGSNKYYADSVKGRFTISRDNSKNTQYLQMNSLRAEDTAVYYCARGGDFLYYYYYGMDVWGQGTTVTVSS VL: DIQMTQSPSSLSASVGDRVTITCRASQGISNYLAWYQQKTGKVPKFLIYEASTLQSGVPSRFSGGGSGTDFTLTISSLQPEDVATYYCQNYNSAPFTFGPGTKVDIK | 0.31 nM | 1.03 nM |
| AB-09-mc-val-cit-PAB-MMAE (antibody, IgG1, V domains shown, mc-val-cit-PAB-MMAE (maleimide reagent) conjugated after TCEP reduction; average DAR 3.5 (±0.2); attachment residues not given) VH: QVQLVESGGGVVQPGRSLRLSCAASGFTFSNYVMHWVRQAPGKGLEWVAIIWYDGSNKYYADSVKGRFTISRDNSKNTLYLQMNSLRAEDTAVYYCAGGYNWNYEYHYYGMDVWGQGTTVTVSS VL: DIQMTQSPSSLSASVGDRVTITCRASQGITNYLAWFQQKPGKAPKSLIYAASSLQSGVPSKFSGSGSGTDFSLTISSLQPEDFATYYCQQYNSYPITFGQGTRLEIK | 0.24 nM | 0.89 nM |
| AB-03-mc-val-cit-PAB-MMAE (antibody, human IgG1, V domains shown, mc-val-cit-PAB-MMAE (maleimide reagent) conjugated after TCEP reduction; average DAR 3.5 (±0.2); attachment residues not given) VH: EVQLVQSGAEVKKPGASVKVSCKASGYTFTEYTIHWVRQAPGKGLEWIGNINPNNGGTTYNQKFEDRVTITVDKSTSTAYMELSSLRSEDTAVYYCAGGWTFDYWGQGTTVTVSS VL: DIQMTQSPSTLSASVGDRVTITCKASQDVGTAVDWYQQKPGQAPKLLIYWASTRHTGVPDRFSGSGSGTDFTLTISRLQPEDFAVYYCQQFTRYPLTFGQGTKVDIK | 0.22 nM | 0.7 nM |
| AB-04-mc-val-cit-PAB-MMAE (antibody, human IgG1, V domains shown, mc-val-cit-PAB-MMAE (maleimide reagent) conjugated after TCEP reduction; average DAR 3.5 (±0.2); attachment residues not given) VH: EVQLVQSGAEVKKPGASVKVSCKASGYTFTEYTIHWVRQAPGKGLEWIGNINPNNGGTTYNQKFEDRVTITVDKSTSTAYMELSSLRSEDTAVYYCAGAWTMDYWGQGTTVTVSS VL: DIQMTQSPSTLSASVGDRVTITCKASQDVGTAVDWYQQKPGQAPKLLIYWASTRHTGVPDRFSGSGSGTDFTLTISRLQPEDFAVYYCQQFTRYPLTFGQGTKVDIK | 0.21 nM | 0.67 nM |
| AB-05-mc-val-cit-PAB-MMAE (antibody, human IgG1, V domains shown, mc-val-cit-PAB-MMAE (maleimide reagent) conjugated after TCEP reduction; average DAR 3.5 (±0.2); attachment residues not given) VH: EVQLVQSGAEVKKPGASVKVSCKASGYTFTEYTIHWVRQAPGKGLEWIGNINPNNGGTTYNQKFEDRVTITVDKSTSTAYMELSSLRSEDTAVYYCAAYWLFDYWGQGTTVTVSS VL: DIQMTQSPSTLSASVGDRVTITCKASQDVGTAVDWYQQKPGQAPKLLIYWASTRHTGVPDRFSGSGSGTDFTLTISRLQPEDFAVYYCQQYNAYSLTFGQGTKVDIK | 0.41 nM | 1.27 nM |

Each binder was assayed against T1, recombinant human PSMA (R&D Systems) (human, UniProt Q04609 44-750) (assay: SPR (Biacore T200), relative to AB-01 on the same chip).
T1 construct: Bought protein used as the Biacore analyte; also called PSMA antigen; PSMA analyte
T1 sequence (Q04609 44-750 limits assumed): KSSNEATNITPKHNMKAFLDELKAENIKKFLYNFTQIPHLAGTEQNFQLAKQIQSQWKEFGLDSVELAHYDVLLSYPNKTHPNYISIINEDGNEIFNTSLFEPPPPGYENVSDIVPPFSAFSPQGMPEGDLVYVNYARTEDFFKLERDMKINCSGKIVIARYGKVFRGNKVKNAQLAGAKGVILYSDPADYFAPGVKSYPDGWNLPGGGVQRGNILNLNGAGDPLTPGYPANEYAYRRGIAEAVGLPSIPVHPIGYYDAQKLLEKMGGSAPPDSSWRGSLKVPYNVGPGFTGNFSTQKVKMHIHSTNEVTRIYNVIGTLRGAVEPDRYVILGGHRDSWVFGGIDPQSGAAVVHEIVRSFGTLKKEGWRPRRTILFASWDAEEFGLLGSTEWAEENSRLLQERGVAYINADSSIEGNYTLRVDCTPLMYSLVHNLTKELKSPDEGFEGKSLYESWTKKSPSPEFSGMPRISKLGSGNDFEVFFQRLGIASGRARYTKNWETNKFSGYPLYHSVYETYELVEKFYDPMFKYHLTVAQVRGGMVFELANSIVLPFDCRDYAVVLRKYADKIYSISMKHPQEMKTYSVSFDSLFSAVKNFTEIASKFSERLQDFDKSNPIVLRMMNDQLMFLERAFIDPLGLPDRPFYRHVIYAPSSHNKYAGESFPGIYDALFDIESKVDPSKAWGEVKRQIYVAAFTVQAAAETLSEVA

| Binder | Relative KD |
| --- | --- |
| AB-02 (antibody, human IgG1, V domains shown, Variable domains only; Expressed as human IgG1 (G1m3) / kappa (Km3)) VH: EVQLVQSGAEVKKPGASVKVSCKASGYTFTEYTIHWVRQAPGKGLEWIGNINPNNGGTTYNQKFEDRVTITVDKSTSTAYMELSSLRSEDTAVYYCAAYWLFDYWGQGTTVTVSS VL: DIQMTQSPSTLSASVGDRVTITCKASQDVGTAVDWYQQKPGQAPKLLIYWASTRHTGVPDRFSGSGSGTDFTLTISRLQPEDFAVYYCQQYNSYPLTFGQGTKVDIK | 1.98 |
| AB-04 (antibody, human IgG1, V domains shown, Variable domains only; Expressed as human IgG1 (G1m3) / kappa (Km3)) VH: EVQLVQSGAEVKKPGASVKVSCKASGYTFTEYTIHWVRQAPGKGLEWIGNINPNNGGTTYNQKFEDRVTITVDKSTSTAYMELSSLRSEDTAVYYCAGAWTMDYWGQGTTVTVSS VL: DIQMTQSPSTLSASVGDRVTITCKASQDVGTAVDWYQQKPGQAPKLLIYWASTRHTGVPDRFSGSGSGTDFTLTISRLQPEDFAVYYCQQFTRYPLTFGQGTKVDIK | 1.56 |

These binders were tested against T1, recombinant human PSMA (R&D Systems) (assay: SPR (Biacore T200), antibody captured on Protein A chip, recombinant human PSMA as analyte, 25 C).

| Binder | Kd |
| --- | --- |
| AB-02 (antibody, human IgG1, V domains shown, Variable domains only; Expressed as human IgG1 (G1m3) / kappa (Km3)) VH: EVQLVQSGAEVKKPGASVKVSCKASGYTFTEYTIHWVRQAPGKGLEWIGNINPNNGGTTYNQKFEDRVTITVDKSTSTAYMELSSLRSEDTAVYYCAAYWLFDYWGQGTTVTVSS VL: DIQMTQSPSTLSASVGDRVTITCKASQDVGTAVDWYQQKPGQAPKLLIYWASTRHTGVPDRFSGSGSGTDFTLTISRLQPEDFAVYYCQQYNSYPLTFGQGTKVDIK | 0.28 nM |
| AB-04 (antibody, human IgG1, V domains shown, Variable domains only; Expressed as human IgG1 (G1m3) / kappa (Km3)) VH: EVQLVQSGAEVKKPGASVKVSCKASGYTFTEYTIHWVRQAPGKGLEWIGNINPNNGGTTYNQKFEDRVTITVDKSTSTAYMELSSLRSEDTAVYYCAGAWTMDYWGQGTTVTVSS VL: DIQMTQSPSTLSASVGDRVTITCKASQDVGTAVDWYQQKPGQAPKLLIYWASTRHTGVPDRFSGSGSGTDFTLTISRLQPEDFAVYYCQQFTRYPLTFGQGTKVDIK | 0.354 nM |

Target: T1, recombinant human PSMA (R&D Systems)
Experiment: as above
Remark: another data set of the same source

| Binder | Kd |
| --- | --- |
| AB-03 (antibody, human IgG1, V domains shown, Variable domains only; Expressed as human IgG1 (G1m3) / kappa (Km3)) VH: EVQLVQSGAEVKKPGASVKVSCKASGYTFTEYTIHWVRQAPGKGLEWIGNINPNNGGTTYNQKFEDRVTITVDKSTSTAYMELSSLRSEDTAVYYCAGGWTFDYWGQGTTVTVSS VL: DIQMTQSPSTLSASVGDRVTITCKASQDVGTAVDWYQQKPGQAPKLLIYWASTRHTGVPDRFSGSGSGTDFTLTISRLQPEDFAVYYCQQFTRYPLTFGQGTKVDIK | 0.245 nM |

Target: T1, recombinant human PSMA (R&D Systems)
Experiment: as above
Remark: another data set of the same source

| Binder | Kd |
| --- | --- |
| AB-05 (antibody, human IgG1, V domains shown, Variable domains only; Expressed as human IgG1 (G1m3) / kappa (Km3)) VH: EVQLVQSGAEVKKPGASVKVSCKASGYTFTEYTIHWVRQAPGKGLEWIGNINPNNGGTTYNQKFEDRVTITVDKSTSTAYMELSSLRSEDTAVYYCAAYWLFDYWGQGTTVTVSS VL: DIQMTQSPSTLSASVGDRVTITCKASQDVGTAVDWYQQKPGQAPKLLIYWASTRHTGVPDRFSGSGSGTDFTLTISRLQPEDFAVYYCQQYNAYSLTFGQGTKVDIK | 0.224 nM |
